# Measurements reported in patent US20110059889A1 (SYNTONIX PHARMACEUTICALS, published 2011).
# Numbered stars: 1 amine (or outer) side, 2 acyl side, 3 side chain; on linkers, the order of the positions; unused ones are H or OH. Bridge positions count the residues as written; N and C are the ends. Square brackets hold non-standard residues; d marks the D form. Ends that are not written are not given here. X4 = (3S)‑3‑amino‑2‑oxo‑1‑piperidine‑acetic acid, O=C1[C@@H](N[*:1])CCCN1CC(=O)[*:2]; 5,5‑bicyclic dipeptide mimic = not defined here; Tyr(Me) = COc1ccc(C[C@H](N[*:1])C(=O)[*:2])cc1; Phe(3-Cl) = N[C@@H](Cc1cccc(Cl)c1)C(=O)O; Dip = N[C@H](C(=O)O)C(c1ccccc1)c1ccccc1; Phe(2-Cl) = N[C@@H](Cc1ccccc1Cl)C(=O)O; His(1-Me) = 1-methylhistidine; NMeL = CN[C@@H](CC(C)C)C(=O)O; Pen = CC(C)(S)[C@H](N)C(=O)O; hCys = N[C@@H](CCS)C(=O)O; Sar = CNCC(=O)O
# B1: Peptide No. 42 (peptide)
# peptide: QRF[Pen]TGHFG[dH]LYPCNGP-NH2
# modifications: disulfide 4-14; N-terminus assumed
# SMILES: CC(C)C[C@@H]1NC(=O)[C@@H](Cc2c[nH]cn2)NC(=O)CNC(=O)[C@H](Cc2ccccc2)NC(=O)[C@H](Cc2c[nH]cn2)NC(=O)CNC(=O)[C@H]([C@@H](C)O)NC(=O)[C@@H](NC(=O)[C@H](Cc2ccccc2)NC(=O)[C@H](CCCNC(=N)N)NC(=O)[C@@H](N)CCC(N)=O)C(C)(C)SSC[C@@H](C(=O)N[C@@H](CC(N)=O)C(=O)NCC(=O)N2CCC[C@H]2C(N)=O)NC(=O)[C@@H]2CCCN2C(=O)[C@H](Cc2ccc(O)cc2)NC1=O
# B2: Peptide No. 44 (peptide)
# peptide: QRF[Pen]TGHFG[dF]LYPCNGP-NH2
# modifications: disulfide 4-14; N-terminus assumed
# SMILES: CC(C)C[C@@H]1NC(=O)[C@@H](Cc2ccccc2)NC(=O)CNC(=O)[C@H](Cc2ccccc2)NC(=O)[C@H](Cc2c[nH]cn2)NC(=O)CNC(=O)[C@H]([C@@H](C)O)NC(=O)[C@@H](NC(=O)[C@H](Cc2ccccc2)NC(=O)[C@H](CCCNC(=N)N)NC(=O)[C@@H](N)CCC(N)=O)C(C)(C)SSC[C@@H](C(=O)N[C@@H](CC(N)=O)C(=O)NCC(=O)N2CCC[C@H]2C(N)=O)NC(=O)[C@@H]2CCCN2C(=O)[C@H](Cc2ccc(O)cc2)NC1=O
# B3: Peptide No. 266 (peptide)
# peptide: RF[Pen]TGAFG[Sar][NMeL]YPC-NH2
# modifications: disulfide 3-13; N-terminus assumed
# SMILES: CC(C)C[C@H]1C(=O)N[C@@H](Cc2ccc(O)cc2)C(=O)N2CCC[C@H]2C(=O)N[C@H](C(N)=O)CSSC(C)(C)[C@H](NC(=O)[C@H](Cc2ccccc2)NC(=O)[C@@H](N)CCCNC(=N)N)C(=O)N[C@@H]([C@@H](C)O)C(=O)NCC(=O)N[C@@H](C)C(=O)N[C@@H](Cc2ccccc2)C(=O)NCC(=O)N(C)CC(=O)N1C
# B4: Peptide No. 40 (peptide)
# peptide: QRF[Pen]TGHFG[dP]LYPCNGP-NH2
# modifications: disulfide 4-14; N-terminus assumed
# SMILES: CC(C)C[C@@H]1NC(=O)[C@H]2CCCN2C(=O)CNC(=O)[C@H](Cc2ccccc2)NC(=O)[C@H](Cc2c[nH]cn2)NC(=O)CNC(=O)[C@H]([C@@H](C)O)NC(=O)[C@@H](NC(=O)[C@H](Cc2ccccc2)NC(=O)[C@H](CCCNC(=N)N)NC(=O)[C@@H](N)CCC(N)=O)C(C)(C)SSC[C@@H](C(=O)N[C@@H](CC(N)=O)C(=O)NCC(=O)N2CCC[C@H]2C(N)=O)NC(=O)[C@@H]2CCCN2C(=O)[C@H](Cc2ccc(O)cc2)NC1=O
# B5: Peptide No. 43 (peptide)
# peptide: QRF[Pen]TGHFG[dI]LYPCNGP-NH2
# modifications: disulfide 4-14; N-terminus assumed
# SMILES: CC[C@@H](C)[C@H]1NC(=O)CNC(=O)[C@H](Cc2ccccc2)NC(=O)[C@H](Cc2c[nH]cn2)NC(=O)CNC(=O)[C@H]([C@@H](C)O)NC(=O)[C@@H](NC(=O)[C@H](Cc2ccccc2)NC(=O)[C@H](CCCNC(=N)N)NC(=O)[C@@H](N)CCC(N)=O)C(C)(C)SSC[C@@H](C(=O)N[C@@H](CC(N)=O)C(=O)NCC(=O)N2CCC[C@H]2C(N)=O)NC(=O)[C@@H]2CCCN2C(=O)[C@H](Cc2ccc(O)cc2)NC(=O)[C@H](CC(C)C)NC1=O
# B6: Peptide No. 33 (peptide)
# peptide: QRFCTGHFGGLYP[Pen]NGP-NH2
# modifications: disulfide 4-14; N-terminus assumed
# SMILES: CC(C)C[C@@H]1NC(=O)CNC(=O)CNC(=O)[C@H](Cc2ccccc2)NC(=O)[C@H](Cc2c[nH]cn2)NC(=O)CNC(=O)[C@H]([C@@H](C)O)NC(=O)[C@@H](NC(=O)[C@H](Cc2ccccc2)NC(=O)[C@H](CCCNC(=N)N)NC(=O)[C@@H](N)CCC(N)=O)CSSC(C)(C)[C@@H](C(=O)N[C@@H](CC(N)=O)C(=O)NCC(=O)N2CCC[C@H]2C(N)=O)NC(=O)[C@@H]2CCCN2C(=O)[C@H](Cc2ccc(O)cc2)NC1=O
# B7: Peptide No. 69 (peptide)
# peptide: QRF[Pen]TGHFGGLYP[hCys]NGP-NH2
# modifications: disulfide 4-14; N-terminus assumed
# SMILES: CC(C)C[C@@H]1NC(=O)CNC(=O)CNC(=O)[C@H](Cc2ccccc2)NC(=O)[C@H](Cc2c[nH]cn2)NC(=O)CNC(=O)[C@H]([C@@H](C)O)NC(=O)[C@@H](NC(=O)[C@H](Cc2ccccc2)NC(=O)[C@H](CCCNC(=N)N)NC(=O)[C@@H](N)CCC(N)=O)C(C)(C)SSCC[C@@H](C(=O)N[C@@H](CC(N)=O)C(=O)NCC(=O)N2CCC[C@H]2C(N)=O)NC(=O)[C@@H]2CCCN2C(=O)[C@H](Cc2ccc(O)cc2)NC1=O
# B8: Peptide No. 56 (peptide)
# peptide: QRF[Pen]TGH[Tyr(Me)]GGLYPCNGP-NH2
# modifications: disulfide 4-14; N-terminus assumed
# SMILES: COc1ccc(C[C@@H]2NC(=O)[C@H](Cc3c[nH]cn3)NC(=O)CNC(=O)[C@H]([C@@H](C)O)NC(=O)[C@@H](NC(=O)[C@H](Cc3ccccc3)NC(=O)[C@H](CCCNC(=N)N)NC(=O)[C@@H](N)CCC(N)=O)C(C)(C)SSC[C@@H](C(=O)N[C@@H](CC(N)=O)C(=O)NCC(=O)N3CCC[C@H]3C(N)=O)NC(=O)[C@@H]3CCCN3C(=O)[C@H](Cc3ccc(O)cc3)NC(=O)[C@H](CC(C)C)NC(=O)CNC(=O)CNC2=O)cc1
# B9: Peptide No. 224 (peptide)
# peptide: RF[Pen]TGH[Dip]GGLYPC-NH2
# modifications: disulfide 3-13; N-terminus assumed
# SMILES: CC(C)C[C@@H]1NC(=O)CNC(=O)CNC(=O)[C@H](C(c2ccccc2)c2ccccc2)NC(=O)[C@H](Cc2c[nH]cn2)NC(=O)CNC(=O)[C@H]([C@@H](C)O)NC(=O)[C@@H](NC(=O)[C@H](Cc2ccccc2)NC(=O)[C@@H](N)CCCNC(=N)N)C(C)(C)SSC[C@@H](C(N)=O)NC(=O)[C@@H]2CCCN2C(=O)[C@H](Cc2ccc(O)cc2)NC1=O
# B10: Peptide No. 221 (peptide)
# peptide: RF[Pen]TGH[Phe(2-Cl)]GGLYPC-NH2
# modifications: disulfide 3-13; N-terminus assumed
# SMILES: CC(C)C[C@@H]1NC(=O)CNC(=O)CNC(=O)[C@H](Cc2ccccc2Cl)NC(=O)[C@H](Cc2c[nH]cn2)NC(=O)CNC(=O)[C@H]([C@@H](C)O)NC(=O)[C@@H](NC(=O)[C@H](Cc2ccccc2)NC(=O)[C@@H](N)CCCNC(=N)N)C(C)(C)SSC[C@@H](C(N)=O)NC(=O)[C@@H]2CCCN2C(=O)[C@H](Cc2ccc(O)cc2)NC1=O
# B11: Peptide No. 222 (peptide)
# peptide: RF[Pen]TGH[Phe(3-Cl)]GGLYPC-NH2
# modifications: disulfide 3-13; N-terminus assumed
# SMILES: CC(C)C[C@@H]1NC(=O)CNC(=O)CNC(=O)[C@H](Cc2cccc(Cl)c2)NC(=O)[C@H](Cc2c[nH]cn2)NC(=O)CNC(=O)[C@H]([C@@H](C)O)NC(=O)[C@@H](NC(=O)[C@H](Cc2ccccc2)NC(=O)[C@@H](N)CCCNC(=N)N)C(C)(C)SSC[C@@H](C(N)=O)NC(=O)[C@@H]2CCCN2C(=O)[C@H](Cc2ccc(O)cc2)NC1=O
# B12: Peptide No. 239 (peptide)
# peptide: RFCTGHFXLYPC
# modifications: not fully specified; Pen 3; X 8 = 3(S)-3-amino-2-oxo-1-azepine acetic acid in place of Gly-Gly; NMeLeu 9; disulfide 3-12; C-terminal amide
# B13: Peptide No. 193 (peptide)
# peptide: RF[Pen]TGHF[X4]LYPC-NH2
# modifications: disulfide 3-12; N-terminus assumed
# SMILES: CC(C)C[C@@H]1NC(=O)CN2CCC[C@H](NC(=O)[C@H](Cc3ccccc3)NC(=O)[C@H](Cc3c[nH]cn3)NC(=O)CNC(=O)[C@H]([C@@H](C)O)NC(=O)[C@@H](NC(=O)[C@H](Cc3ccccc3)NC(=O)[C@@H](N)CCCNC(=N)N)C(C)(C)SSC[C@@H](C(N)=O)NC(=O)[C@@H]3CCCN3C(=O)[C@H](Cc3ccc(O)cc3)NC1=O)C2=O
# Biological target: T1, soluble human FcRn (shFcRn) (human, UniProt P55899 24-297; P61769 21-119)
# T1 construct: Biotinylated for the ELISA, amine-coupled to a CM5 chip for SPR; also called biotinylated shFcRn
# Assay: SPR pH 6
# Experimental: (§1) The following steps were performed to cross-link soluble human or cynomolgus FcRn to the dextran surface of a CM5 sensor chip (Biacore AB, Uppsala, Sweden) by an amine coupling reaction involving 1-ethyl-(3-dimethylaminopropyl)-carbodiimide hydrochloride (EDC) (Biacore AB, Uppsala, Sweden) and N-hydroxysuccinimide (NHS) (Biacore AB, Uppsala, Sweden) as recommended by Biacore (BIAapplications Handbook, version AB, section 4.2, Biacore AB, Uppsala, Sweden). […] Residual sites on the FcRn flow cell were blocked with 1 M ethanolamine hydrochloride pH 8.5 (Biacore AB, Uppsala, Sweden). A control flow cell was blocked with ethanolamine for reference subtraction. For analysis of the monomeric peptides, FcRn was coated to a final density of 4000-5000 response units (RU). For analysis of the peptide dimers, FcRn was coated to a density of 2000-2500 RU. All SPR measurements were performed using a BIACORE 3000 Instrument (Biacore AB Uppsala, Sweden). For measurements done at either pH 6 or pH 7.4, experiments were performed in 50 mM phosphate, 100 mM sodium chloride, 0.01% surfactant P20 (Biacore AB, Uppsala, Sweden).
# (§2) Ten, 2-fold dilutions of the peptide were injected over the FcRn-CM5 chip at a rate of 20 μl/min for 2 min. The peptide was dissociated from the chip for 2.5 minutes with buffer. Any remaining peptide was removed from the chip with a 30 second injection of HBS-P buffer (Biacore AB, Uppsala, Sweden) at a rate of 30 μl/min. Sensorgrams were generated and analyzed using BiaEval software version 3.1 (Biacore AB, Uppsala, Sweden). The equilibrium RU observed for each injection was plotted against concentration. The equilibrium KD values were derived by analysis of the plots using the steady state affinity model included in the BiaEval software.
# T1 sequence (P55899 24-297 limits assumed, chain 1 of 2): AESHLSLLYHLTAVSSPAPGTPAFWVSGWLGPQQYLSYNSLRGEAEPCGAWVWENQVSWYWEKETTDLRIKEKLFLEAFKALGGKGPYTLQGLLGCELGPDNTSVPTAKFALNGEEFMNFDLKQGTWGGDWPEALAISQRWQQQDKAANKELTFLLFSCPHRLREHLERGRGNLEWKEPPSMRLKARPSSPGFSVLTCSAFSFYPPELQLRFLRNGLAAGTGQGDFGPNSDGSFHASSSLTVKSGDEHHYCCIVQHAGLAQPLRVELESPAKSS
# T1 sequence (P61769 21-119 limits assumed, chain 2 of 2): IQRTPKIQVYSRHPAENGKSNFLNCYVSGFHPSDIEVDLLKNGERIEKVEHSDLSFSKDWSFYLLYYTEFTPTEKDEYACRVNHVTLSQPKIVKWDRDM
row,Binder,Kd [µM]
1,B1,2
2,B2,1.7

# Biological target: T1, soluble human FcRn (shFcRn)
# Assay: SPR pH 6
# Remark: another data set of the same source
# Experimental: as §1, §2
row,Binder,Kd [µM]
1,RFCTGXFGGLYPC (Pen 3; Thz 6; Sar 9; NMeL 10; disulfide 3-13; C-terminal amide) [Peptide No. 248],0.84
2,QRF[Pen]TG[His(1-Me)]FGGLYPCNGP-NH2 (disulfide 4-14) [Peptide No. 138],0.74
3,B3,9.9

# Biological target: T1, soluble human FcRn (shFcRn)
# Assay: SPR pH 7.4
# Experimental: as §1, §2
row,Binder,Kd [µM]
1,B4,1.1
2,B1,20
3,B5,41
4,B2,100

# Biological target: T1, soluble human FcRn (shFcRn)
# Assay: IgG competition ELISA
# Experimental: (§3) The wells were coated with 100 μl/well of 1 μg/ml biotinylated-shFcRn in Buffer A. The plate was sealed and incubated at 37° C. for 2 hours. Afterwards, the plate was washed with 200 μl/well of Buffer B (Buffer B: 100 mM MES pH 6, 150 mM NaCl, 0.5% BSA IgG-free (Jackson ImmunoResearch, West Grove, Pa.), 0.05% Tween-20). […] To allow for mixing, the plate was rocked for 2 minutes, sealed and incubated at 37° C. for 2 hours. […] The plate was covered, incubated for 30 minutes at room temperature and washed 4 times with 200 μl/well of ice-cold buffer B. SureBlue TMB substrate solution (100 μl/well, KPL, Gaithersburg, Md.) was added and the plate was allowed to incubate at room temperature until color developed, which took 5 to 10 minutes. Once color developed, 100 μl/well of TMB stop solution (KPL, Gaithersburg, Md.) was added and the absorbance was measured at 450 nm. The data was plotted as absorbance vs. peptide concentration to derive the inhibitory concentration 50% (IC₅₀) values.
row,Binder,IC50 [µM]
1,B6,18
2,B7,2

# Biological target: T1, soluble human FcRn (shFcRn)
# Assay: IgG competition ELISA
# Remark: another data set of the same source
# Experimental: as §3
row,Binder,IC50 [µM]
1,B4,1.4
2,B5,18

# Biological target: T1, soluble human FcRn (shFcRn)
# Assay: IgG competition ELISA
# Remark: another data set of the same source
# Experimental: as §3
row,Binder,IC50 [µM]
1,B8,100
2,B9,32
3,B10,4
4,B11,3.7
5,QRFCTGHXGGLYPCNGP (Pen 4; 2-pyridylalanine 8; disulfide 4-14; C-terminal amide) [Peptide No. 58],90

# Biological target: T1, soluble human FcRn (shFcRn)
# Assay: IgG competition ELISA
# Remark: another data set of the same source
row,Binder,IC50 [µM]
1,RFCTGXFGGLYPC (Pen 3; Thz 6; Sar 9; NMeL 10; disulfide 3-13; C-terminal amide) [Peptide No. 248],1.6
2,QRF[Pen]TG[His(1-Me)]FGGLYPCNGP-NH2 (disulfide 4-14) [Peptide No. 138],3.4
3,B3,> 100

# Biological target: T1, soluble human FcRn (shFcRn)
# Assay: IgG competition ELISA
# Remark: another data set of the same source
# Experimental: as §3
row,Binder,IC50 [µM]
1,B12,0.62
2,B13,7.3
3,"RF[Pen]TGHF[5,5‑bicyclic dipeptide mimic]LYPC-NH2 (disulfide 3-12; reading uncertain, isomer only in drawing CHEM-US-00084) [Peptide No. 198]",23
